Measured values as given in patent publication US10513545B2, “Fusion polypeptide in which anti-inflammatory polypeptide and ferritin monomer fragment are bound and pharmaceutical composition for preventing and treating inflammatory diseases, containing same as active ingredient” (KYUNGPOOK NATIONAL UNIVERSITY INDUSTRY-ACADEMIC COOPERATION …, priority 2015, dated 2019).

B1: TFG: fusion polypeptide: TRAP at N-terminus and PC-Gla at C-terminus of short ferritin monomer fragment, forms nanocage (apparently SEQ ID NO: 14) (protein)
chain: MGGTTFLLRNASGHMSSQIRQNYSTDVEAAVNSLVNLYLQASYTYLSLGFYFDRDDVALEGVSHFFRELAEEKREGYERLLKMQNQRGGRIFLQDIKKPAEDEWGKTPDAMKAAMALEKKLNQALLDLHALGSARTDPHLCDFLETHFLDEEVKLIKKMGDHLTNLHRLGGGSEFVDGGGSGTSANSFLEELRHSSLERECIEEICDFEEAKEIFQNVDDTLAFWSKHVLEHHHHHH
modifications: Fusion polypeptide (1)
B2: TFMG: as TFG with an MMP-2 cleavable linker (GPLGLAG) between ferritin fragment C-terminus and PC-Gla (apparently SEQ ID NO: 15) (protein)
chain: MGGTTFLLRNASGHMSSQIRQNYSTDVEAAVNSLVNLYLQASYTYLSLGFYFDRDDVALEGVSHFFRELAEEKREGYERLLKMQNQRGGRIFLQDIKKPAEDEWGKTPDAMKAAMALEKKLNQALLDLHALGSARTDPHLCDFLETHFLDEEVKLIKKMGDHLTNLHRLGGGSEFVDGGGSGTSGPLGLAGANSFLEELRHSSLERECIEEICDFEEAKEIFQNVDDTLAFWSKHVLEHHHHHH
modifications: Fusion polypeptide (2)

What was measured:
[1] = system: IL-6, IL-10, TNF-α; assay: blood inflammatory cytokines (ELISA) in CLP-induced sepsis; format: in vivo, mouse; details: for level of IL-6 / level of IL-10: FIG. 18A; for level of TNF-α: FIG. 18B
Experimental: To induce inflammation, male mice were anesthetized with 2% isoflurane (JW Pharmaceutical, Republic of Korea) in oxygen delivered via a small rodent gas anesthesia machine (RC2, Vetequip, Pleasanton, Calif.), first in a breathing chamber and then via a facemask. They were allowed to breathe spontaneously during this procedure. The CLP-induced inflammation model was prepared as previously described. In brief, a 2-cm midline incision was made to expose the cecum and adjoining intestine. The cecum was then tightly ligated with a 3.0-silk suture at 5.0 mm from the cecal tip and punctured once using a 22-gauge needle for the induction of high grade inflammation. It was then squeezed gently to extrude a small amount of feces from the perforation site and returned to the peritoneal cavity. The laparotomy site was then sutured with 4.0-silk. In sham control animals, the cecum was exposed but not ligated or punctured and then returned to the abdominal cavity. This protocol was approved by the Animal Care Committee at Kyungpook National University prior to the conduct of the study (IRP No, KNU 2012-13).
Fresh serum was used for assaying aspartate transaminase (AST), alanine transaminase (ALT), blood urea nitrogen (BUN), creatinine, and LDH using biochemical kits (Mybiosource). To determine the concentrations of IL-6, IL-10, and TNF-α, commercially available ELISA kits were used according to the manufacturer's protocol (R&D Systems). Values were measured using an ELISA plate reader (Tecan, Austria GmbH, Austria).

[2] = system: CLP-induced sepsis; assay: in vivo vascular permeability assay (Evans blue leakage); parameters: species or system mouse; details: CLP-operated mice, intravenous, FIG. 20
Experimental: CLP-operated mice were injected with PC-Gla with TRAP, TFG, or TFMG intravenously. After 6 h, 1% Evans blue dye solution in normal saline was injected intravenously into each mouse. Thirty minutes later, the mice were sacrificed, and the peritoneal exudates were collected after being washed with normal saline (5 mL) and centrifuged at 200×g for 10 min. The absorbance of the supernatant was read at 650 nm. The vascular permeability was expressed in terms of dye (mg/mouse), which leaked into the peritoneal cavity according to a standard curve of Evans blue dye, as previously described.

[3] = system: endothelial cells; assay: in vivo binding to endothelial cells (intravenously injected mice, isolated mouse endothelial cells); details: mouse animal model, FIG. 12B
Description: The endothelial cells were isolated according to the manufacturer's (Dynal Biotec, Lake Success, N.Y.) instructions, using Dynabeads coupled to anti-CD31 antibody and the Dynal Magnetic holder. Briefly, for endothelial cell isolation, four to six mice (6-10 weeks old) were anesthetized, followed by exposure of the peritoneal cavity. Excised lungs and hearts were put into RPMI media, followed by removing other tissues from the heart and lungs, and then rinsing once in PBS. The lungs and heart were incubated with 1.0 mg/mL of collagenase A in a 50 mL tube for 1 h at around 37° C. Every 5 min during this incubation, the tube was gently agitated for a few seconds, and then the suspension was transferred into a new 50 mL tube by passing it through the 70 um tissue sieve (BD Falcon). The filtered cell suspension was centrifuged for 10 min at 1000 rpm. After removal of the supernatant, the cell pellet was washed once with cold PBS in a new 15-mL tube. […]
A direct cell-binding assay was performed on HUVECs and in vivo using fluorescence labeled-PC-Gla, TFG, and TFMG. […] The fluorescence value of the HUVECs or endothelial cells were measured with tightly bound PC-Gla, TFG, and TFMG, respectively. The concentrations of PC-Gla, TFG, and TFMG were measured by using the nanoparticle ratio of fluorescent dye per protein.

[4] = system: PAR-1; assay: PAR-1 cleavage assay in transfected HUVECs (ALP activity); format: cell-based; details: FIG. 13
Experimental: HUVECs at 90% confluence in 24-well plates were transiently transfected with pRc/RSV containing ALP-PAR-1-TF cDNA in antibiotic-free Opti-MEM medium using Lipofectamine (Invitrogen) according to the manufacturer's instruction. On the following day, cells were washed and incubated in serum-free medium for 5 h. Cells were then incubated for an additional hour with thrombin, TRAP, TFG, or TFMG. Conditioned medium was collected and centrifuged to remove cellular debris. Supernatant was collected, and ALP (alkaline phosphatase) activity was measured using EnzoLyte™ p-nitrophenyl phosphate alkaline phosphatase assay kit (AnaSpec, San Jose, Calif.) according to the manufacturer's instructions.

Molecule | level of IL-6 [1] | level of IL-10 [1] | level of TNF-α [1] | in vivo vascular permeability [2] | in vivo binding to endothelial cells compared with PC-Gla [3] | PAR-1 cleavage activity (ability to activate PAR-1) [4]
B1 | mitigated | mitigated | mitigated | alleviated | bound more strongly to, and stayed longer on, endothelial cells than PC-Gla did | strong similarities
B2 | mitigated | mitigated | mitigated | alleviated | bound more strongly to, and stayed longer on, endothelial cells than PC-Gla did | strong similarities
